Reference: US20230257476A1 (ELANCO US, published 2023)

Target: T1, canine CD20 (canine, UniProt Q3C2E2 1-297)
T1 construct: whole, on cells; Endogenous antigen in acetone-fixed tissue cryosections (IHC); also called CD20 protein in dogs
T1 sequence (looked up): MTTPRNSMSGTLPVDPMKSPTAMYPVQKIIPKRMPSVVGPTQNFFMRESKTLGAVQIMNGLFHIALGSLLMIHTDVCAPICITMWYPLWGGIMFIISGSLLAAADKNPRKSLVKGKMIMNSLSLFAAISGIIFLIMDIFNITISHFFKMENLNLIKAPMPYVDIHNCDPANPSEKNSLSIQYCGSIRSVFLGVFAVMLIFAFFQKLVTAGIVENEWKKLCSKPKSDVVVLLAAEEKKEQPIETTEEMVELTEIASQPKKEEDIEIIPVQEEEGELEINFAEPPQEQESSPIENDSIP
Test: IHC, precomplexed with biotinylated rabbit anti-dog IgG, cryosections of canine spleen, 10 ug/mL
Method: The detection reagent or negative control antibody (at a concentration of 10 […]) was mixed with biotinylated rabbit anti-dog IgG, Fc fragment-specific antibody (RbaDglgG) at a concentration of 15 ug/mL to achieve a primary : secondary antibody ratio of 1:1.5 on the day prior to staining.
Precomplexed antibodies were incubated overnight on a rocker mechanism in a refrigerator set to maintain 4° C., Prior to use of the antibody on the subsequent day, dog gamma globulins were added to each vial to achieve a final concentration of 3 mg/mL, and then incubated for at least 2 hours on the rocker mechanism in a refrigerator set to maintain 4° C. Slides were fixed in acetone for 10 minutes at room temperature at the time of sectioning. On the day of staining, the slides were rinsed twice with Tris-buffered saline, 0.15M NaCl, pH 7.6 TBS. Endogenous peroxidase was then quenched by incubation of the slides with an appropriate reagent such as Biocare PeroxAbolish reagent for 5 minutes at room temperature. Next, the slides were rinsed twice with TBS, incubated with the avidin solution for 15 minutes, rinsed once with TBS, incubated with the biotin solution for 15 minutes, and rinsed once with TBS, The slides were then treated with a protein block designed to reduce nonspecific binding for 20 minutes.

B1: K9LO-133 (antibody, V domains shown)
VH: EVQLVQSGAEVKKPGESLKISCKGSGRTFTSYNMHWVRQMPGKGLEWMGAIYPLTGDTSYNQKSKLQVTISADKSISTAYLQWSSLKASDTAMYYCARSTYVGGDWQFDVWGKGTTVTVSS
VL: EIVLTQSPGTLSLSPGERATLSCRASRSVPYIHWYQQKPGQAPRLLIYATSALASGIPDRFSGSGSGTDFTLTISRLEPEDFAVYYCQQWLSNPPTFGQGTKLEIKR
notes: In the IHC it was precomplexed with biotinylated rabbit anti-dog IgG Fc antibody; also called chimeric canine isotype C monoclonal antibody directed against canine CD20
Question: Does B1 bind?
Answer: Result: binds
